# Molecular target: T1, PtpA (Mycobacterium tuberculosis) (UniProt P9WIA1)
# T1 sequence: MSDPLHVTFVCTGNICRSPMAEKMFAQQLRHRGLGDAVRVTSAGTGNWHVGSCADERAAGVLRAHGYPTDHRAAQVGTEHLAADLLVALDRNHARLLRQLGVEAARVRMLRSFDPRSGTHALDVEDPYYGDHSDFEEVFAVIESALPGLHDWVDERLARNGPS
# Assay: competition
# Settings: EMSA: 10 ug PtpA, 10 nM biotin-labeled DNA, Beyotime GS009 binding buffer (salt, pH not stated), 20 min, room temperature, 15% native PAGE
sequence,measurement,value
"CCTTAAAACAAAAGACATGAAAAGATAATAAGAAAAAAGTGCCGCAACTATTATAGAAAAACACTTGGCAGCCTGCTTCAGCCCAAGCTGAGGCCACCTCTAGCCTCTGCTAAAGCCCCCCACTCCCAATGGTCCCCGCCAACCGGATAA (double strand) [GADD45A promoter -250 to -100, unlabeled negative competitor]",binding,no binding

# From paper PMC5557760
